Assay results taken from the nanobody polyreactivity screen of Harvey et al. (2022).

Experiment: yeast display, Sf9 membrane polyspecificity reagent, FACS + sequencing; frameworks hold sequencing errors
How it was run: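 Sorting gates, low and high (top ~1%), were placed on anti-HA fluorescence to track expression and on streptavidin fluorescence to track reagent binding. A clone's polyreactivity label is taken from the gate it came out of. The reagent was 10% biotinylated, detergent-solubilized Sf9 membrane, applied for 1 hour at 4 °C to galactose-induced yeast display cells.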

Sequence	polyreactivity (PSR sort gate)
QVLLVDSGGGLVQAGGSLSLICAASGFTFYYNAMGWYRQAPGKERELVAGISGRGGTTYYADSVNGRFTISRDNAKNTVYLQMNSLKPEDTAVYYCAARKVRARSKFEYWGQGTQVTVSS	high polyreactivity
QVQLVESGGGLVQAGGSLRLSCAASGGLFIRYGMGWYRPAPGKERELVAGIDSGGGTNYADSVKGRFTISRDNAKNTVYLQMNSLKPEDTAVYYCARRQGYGFLYGRPYGYWGQGTQVTVSS	low polyreactivity
QVQLVESGGGLVQAGGSLRLSCAASGRIFVYYTMGWYRQAPGKERELVAAITGSGGSTYYADSVKGRFTISRDNAKNTVYLQMNSLKPEDTAVYSCAVYDSYRKFKYWGQGTQVTVSS	high polyreactivity
QVQLVESGGGLVQAGGSLRLSSAPSGRTFGVYAMGWYRQAPGKERELVAAISATGGSTYYADSVKGRFTISRDNAKNTVYLQMNSLKPEDTAVYYCARGGTTLYWGQGTQVTVSS	high polyreactivity
QVQLVESGGGLVQAGGSLRLSCAASGNTFVYKDMGWYRQAPGKERELVADIRYSGSTYYADSVKGRFTISRDNAKNTVYLQMNSLKPEDTAVYYCAKAYYVLSWMGYWGQGTQVTVSS	low polyreactivity
QVQLVESGGGLVQAGGSLRLSCAASGSIFRRNAMGWYRQAPGKDRELVAAITTRGSRTTYADSVKGRFTISRDNAKNTVYLQMNSMKPEDTAVYYCAARQHFSYSFHVAYDYWGQGTQVTVSS	high polyreactivity
QVQLVESGGGLVQAGGSLRLSCAASGSIFRQYAMGWYRQAPGKERELVAAINYSGGNTYYADSVKGRFTISRDNAKNTVYLQMNSLKPEDTAVYYCAADSVRHFWWAYYYWGQGTQVTVSS	low polyreactivity
QVQLVESGGGLVQAGGSLRLSCAASGRTFKKYAMGWYRQAPGKERELVAAITGSGGSTYYADSVKGRFTISRDNAKNTVYLQMNSLKPEDTAVYYCAAYAYGVWHSQDGGNYWGQGTLVTVSS	low polyreactivity
QVQLVESGGGLVQAGGSLRLSCAASGRTFDLYAMGWYRQAPGKERELVARITNIDDSTYYADSVKGRFTISRDNAKNTVYLQMNSLKPEDTAVYYCNAVVTKYAKSRFLYYYWGQGTQVTVSS	high polyreactivity
QVQLVESGGGLVQAGGSLRLTCAASGGIFQFYDMGWYRQAPGKERELVAAITSSGGSTYADSVKGRFTISRDNAKYTVYLQMNSLKPEVTAVYYCAASLVWEYAPGWRFKYGYWGQGTQVTVSS	high polyreactivity
QVQLVESGGGLVQAGGSLRLSCAASGITFDHYAMGWYRQAPGKERELVAAITSGGNTNYADSVKGRFTISRDNAKNTVYLQMNILKPVDTAVYYCNARYDVWYYYWGQGTQVTVSS	high polyreactivity
QVQLVESGGGLVQAGGSLRLSCAASGTFAIYAMGWYRQAPGKERELVAAIRWRGGRTYYADSVKGRFTISRDNAKNTVYFQMNSLKPEDTAVYYCAAEVPYYWWSPYRVDVGYWGQGTQVTVSS	high polyreactivity
QVQLVESGVGLVQAGGSLRLSCAASGRTISYNARGWYRQAPGKEREFVADINYSAGSTYYADSVKGRFTISRDNAKNTGKLQMNRLKPEDTAVYYCAAKYYGEMYSWGQGTQVSVSS	low polyreactivity
QVQLVESGGGLVQAGGSLRLSCAASGGTLRGYAMGGYRQAPGKEREFDATISRRGGSTYYADSVKGRFTNSRDNAKNTVYLQMNSLKPEDTAVYYCAKQGQSDYYSWGQGTQVTVSS	high polyreactivity
QVQLVESGGGLVQAGGSLRLSCAASGLTLRNYAMGWYRQAPGKERELVARITTGGSTHYADSVKGRFTISRDNAKNTVSLQMHSLKPEDTAVYYCNTGPYTFVSPEYYYWGQGTQVTVSS	low polyreactivity
QVQLVESGGGLVQAGGSLRLSCAASGSIFGSYAMGWYRQAPGKERELVAAISYSGGTTYYADSVKGRFTISRDNAKNTVYLQMNSLKPEDTAVYYCNAPVAYQREYDYWGLGTQVTVSS	low polyreactivity
QVQLVDSGGGLVQAGGSLRLSCAASGRTIWRNAMGWYRQAPGKERELVAAIRWSGGRTYADSVKGRFTISRDKAKNTVYLQMNILKPEDTAVYYCNARGLSDWTLKLDYWGQGTQVTVSS	low polyreactivity
QFKLVESGGGLVQAGGSLRLSCAASGSTFKWNAMGWYRQAPGKERELVAAITSGGSTTYADSVKGRFTISRDNAKNTVYLQMNSLKPEDTAVYYCAAAYRRHYYGVYRFDYWGQGTQVTVSS	high polyreactivity
QVQLVESGGGLVQAGGSLRLSCAASGSIFSGYAMGWYRQAPGKERELVAAISTSSVRTYYADSVKGRFTISRDNAKNTVYLQMNSLKPEDTAVYYCAARDGGSYTPMYYWGHGTQVTVSS	high polyreactivity
QVQLVESGGGLVQAGGSLRLSCAASGSIFSWYAMGWYRQAPGKERELVAAISNSGGSTYYADSVKGRFTISRDNAKNTVYLQMNSLKPEDTAVYYCAAYDGDTYDWGQGTQVTVSS	high polyreactivity
QVQLVESGGGLVQAGGSLRLSCAASGFTFYWYAMGWYRQAPGKERELVAAISTSDTSTYADSVKGRFTISRDNAKNTVYLQMNSLKPEDTAVYYCNRRQYYYYGTSRYNYWGQGTQVTVSS	low polyreactivity
QVQLVESGGGLVQAGGSLRLSCAASGSIFHYNAMGWYRQAPGKERELVAAISTSGGSTYYADSVKGRFTISRDNAKNTVYLQMNSLKPEDTAVYYCNAYHRYRRLEMYYWGQGTQVTVSS	high polyreactivity

Sequence	polyreactivity (PSR sort gate)
QVQLVESGGGLVQAGGSLRLSCAASGRTFTKYAMGWYRQAPGKERELVAAISRSGGSSYYADSAPGRFTISRDNAKNTVYLQMNSLKPEDTAVYYCAARGQYRYSFGDYSWGQGTQVTVSS	high polyreactivity
QVQLVESGGGLVQAGGSLRLSCAASGTFAFYTMGWYRQAPGKERELVAAISWDGGDTYYADSVKGRFTISRDNAKNTVYLQMNSLKPEDTAVYYCAADYSNSGYGYWGQGTQVTVSS	low polyreactivity
QVQLVESGGGLDQAGGSLRLSCAAYGSIFYGYAMGWYRTAPGKERELVAAITSGGSTYYADSVKGRFTISRDNAKNTVYLQMNSLKPEDTAVYYCAATFCTWYSWYDYWGQGTQVTVSS	high polyreactivity
QVQLVESGGGLVQAGGSLRLSCAASGSTFYIYAMGWYRQAPGKERELVAAITWRGGGTYYADSVKGRFTISRDNAKNTVYLQMNSLKPEDTAVYYCNADYPRSHYQYPYNYWGQGTQVTVSS	high polyreactivity
QVQLVESGGGLVQAGGSLRLSCAASGSIFGFNALGWYRQAPGKERELVASITWSGSSTYYADSVKGRFTISRDNAKNTVYLQMNSLKPEDTAVYYCAKEFVHTHFYLWHVFKYGYWGQGTQVTVSS	low polyreactivity
QVQLVESGGGLVQAGGSLRLSCAASGSIFGSYAMGWYRQAPGKERELVAGIRSGGSTYYADSVKGRFTISRDNAKNTVYLQMNSLKPEDTAVYYCAGHEEYWGQGTQVTVSS	low polyreactivity
QVQVVESGGGLVQAGGSLRLSCAASGIIFKQNVMGRYIQAPGKERELVAAISRGGSTNYADSLKGRFTISRDNAKNTVYLQMNSLKPEDTEVYYCAARFVLRREYGYWGQGTQVTVSS	high polyreactivity
QVQLVESGGGLVQAGGRLRLSCAASGSIFSIYPMGWYRQAPGKERDFVASITVTDGSTYYADSVKGRFTISRDNAKNTVYLQMNSLKPEDTADYYCNADGWYALYEWLAVSGYYWGQGTQVTVSS	low polyreactivity
QVQLVESCGGLVQAGGSLRLSCAASGFIIGYYAMGWYRQAPGKERELVAAISSTGGSTYYADSVKGRFTISRDNAKNNVYLQMNSLKPEDTAVYYCAKRFAYYRYHPGYDYWGQGTQVTVSS	high polyreactivity
KVQLVESGGGLVQAGGSLRLSCAASGSTFSYYAMGWYRQGPGKERELVAAITRSGYSTYYADSVKGRFTISLDNAKNTVYLQMNSLKPEDTAVYYCNTVSRYKYPKPTYYQSSFYYWGQGTQVTVSS	high polyreactivity
QVQLVESGGGLVQARGSLRLSCAASGRTSPYYAMGWYRQAPGKEREWVAAISDGGSTNYADSVKGRFTISRDNAKNTVYLQMNSLKPEDTAVYYCAAYWHCFGWLRGGYWGQGTQVTVSS	high polyreactivity
QVQLVESWGGLVQAGGSLRLSCAASGSIFRRYAMGWYRQAPGKERELVAAISIGGRTYYADSVKGRFTISRDNAKNTVYFQMNSLKPEDTAVYYCAARESRSWGGGSWGQGTQVTVSS	high polyreactivity
QVQLVESGGALVQAGGSLRLSCAASGSIFYKYTMGWYRQAPGKERELVAAISRSGGSTYYADSVKGRFTISRDNAKNTVYLQMNSLKTEDTAVYYCATTGRVPGEYWGQGTQVTVSS	high polyreactivity
QVQLVESGGGLVQAGGSLRLSCDASGSTFGTYAMGWYRQAPGKERELVATITYRGGSTNYADSVKGRFTISRDNAKNTVYLQMISLKPEDTAVYYCAADYFSQLAGIFDYWGLGTQVTVSS	low polyreactivity
QVQLVESGGGLVQAGGSLRLSCAASRFYTMGWYRPAPGKERELVAAISWSGGDTYYADSVKGRYTISRDNAKNTVYLQMNSLKPEDPAVFYCNKDYSFEYSLRHRDYWGQGTQVTVSS	low polyreactivity
QVQLVDSGGGLVQAGGSLRLSCAASGSTFPNNAMGRYRQAPGKERELVAAITTRGGSTYYADSVKGRFTISRDNAKNTVYLQMNSLKAEDTAVYYCAKRRRSAAPKYDYWGQGTQVTVSS	high polyreactivity
QVQLVESGGGLVQAGGSLRLSCAASGNTFKGYAMGWYRQAPGKERELVAAISWSGSSTYYADSVKGRFTISRDNAKNTVYVQMISLKPEDTAVYYCNRKYLGRYASVYGYGYWGQGTQVTVSS	high polyreactivity
QVQLVHSGGGLVQAGGSLRLSCAASGITIWYYAMGWYRQAPGKERELVAAISWRGGSTYYADSVKGRFTISRDYAKNTVNLQMNSLKPEATAVYYCAAGYSLLYTYEYWGQGTQVTVSS	high polyreactivity
QVQLVESGGGLVQAAGSLRLSCAASGSIFGAYAMGWYRQAPGKERELVAAINYGGATTYYADSVKGRFTISRDNAKNTVYLQMNSLKPEDTAVYYCAADYLYAYGDVAVVYGWYAYYYWGQGTQVTVSS	low polyreactivity
QVQLVESGGGLVQAGGSLRLSCAASGSIFEYNAMGWYRPAPGKERELVAAISWSSGTTYYADSVKGRFTISLDNAKNSVYLQMNSLKPEDTAVYYCNAGRYGKDSDYWGQGTQVTVSS	low polyreactivity
QVQLVESGGGLVQAGGSLRLSCAASGSIIYGYAMGWYRQAPGKERELVASISSGGSTNYADSVKGRFTISRDNAKNTVYLQMNSLKPEDTAVYYCAAYFQRSGFSFRLRGQGTQVTVSS	high polyreactivity
